Reference: patent US20250109215A1 (Xencor, published 2025)

T1: human CD123 (human, UniProt P26951 19-305, limits assumed)
T1 construct: Construct on the chip is not described; also called CD123 chip
T1 sequence (looked up): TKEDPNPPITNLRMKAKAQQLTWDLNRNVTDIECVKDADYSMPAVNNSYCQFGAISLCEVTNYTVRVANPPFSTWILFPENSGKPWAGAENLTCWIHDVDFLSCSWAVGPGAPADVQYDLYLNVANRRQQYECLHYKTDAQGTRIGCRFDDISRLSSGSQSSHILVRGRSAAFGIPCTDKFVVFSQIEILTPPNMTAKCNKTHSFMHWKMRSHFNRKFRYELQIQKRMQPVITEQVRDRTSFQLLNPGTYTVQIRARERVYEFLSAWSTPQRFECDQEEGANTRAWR


Columns and labels:
human CD123 [1] = target: T1, human CD123; assay: Biacore, Fab-His on CD123 (Example 3; the sheet names no assay)
human CD123 [2] = target: T1, human CD123; assay: SPR sensorgrams of the Fab on CD123 (highest trace about 153 RU); the value is printed over the panel without a name and equals the rounded KD of Figure 127
human CD123 [3] = target: T1, human CD123; assay: off-rate screen of Fab-His on a Biacore CD123 chip (Example 3), relative to 7G3 H1L1 Fab
human CD123 [4] = target: T1, human CD123; assay: SPR sensorgrams on CD123 (highest trace about 160 RU); the value is printed over the panel without a name and equals the rounded KD of Figure 127
human CD3 = target: T2, human CD3 (human, UniProt P07766 23-126; P04234 22-105); assay: method not stated in the legend of FIG. 142
T2 construct: The legend says only human CD3

cyno CD3 = target: T3, cyno CD3 (cynomolgus monkey, UniProt Q95LI5 22-117; Q95LI8 22-105); assay: method not stated in the legend of FIG. 143
T3 construct: The legend says only cyno CD3; also called cynomolgus monkey CD3
T3 sequence (Q95LI5 22-117, form in doubt, chain 1 of 2): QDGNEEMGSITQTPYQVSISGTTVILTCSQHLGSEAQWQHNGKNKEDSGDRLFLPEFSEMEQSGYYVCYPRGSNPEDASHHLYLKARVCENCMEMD
T3 sequence (Q95LI8 22-105, form in doubt, chain 2 of 2): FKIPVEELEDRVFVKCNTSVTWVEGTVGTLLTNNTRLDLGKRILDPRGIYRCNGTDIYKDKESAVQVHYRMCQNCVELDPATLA

T2 sequence (P07766 23-126, chain 1 of 2): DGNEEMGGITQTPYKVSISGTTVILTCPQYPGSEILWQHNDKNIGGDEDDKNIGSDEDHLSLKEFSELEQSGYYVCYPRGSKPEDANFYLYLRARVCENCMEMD
T2 sequence (P04234 22-105, chain 2 of 2): as the sequence (Q95LI8 22-105, form in doubt, chain 2 of 2) above, with V5I, K15N, V20I, T32S, N33D, N34I, A64T, N74S, L83V counted along it

| Ka (human CD123 [1]) | Kd (human CD123 [1]) | koff (human CD123 [1]) | kon (human CD123 [1]) | Kd (human CD123 [2]) | Fold improvement in off-rate vs. H1L1 (human CD123 [3]) | Kd (human CD123 [4]) | Kd (human CD3) | Kd (cyno CD3) | Binder |
| --- | --- | --- | --- | --- | --- | --- | --- | --- | --- |
| 6.25e+09 M⁻¹ | 0.16 nM | 0.000108 s⁻¹ | 674000 M⁻¹ s⁻¹ | 0.2 nM | 7.21 fold | – | – | – | 13760 7G3_H0L0_Fab_His (Fab, V domains shown, Fab of the murine 7G3 variable regions; also called XENP13760) VH: EVQLQQSGPELVKPGASVKMSCKASGYTFTDYYMKWVKQSHGKSLEWIGDIIPSNGATFYNQKFKGKATLTVDRSSSTAYMHLNSLTSEDSAVYYCTRSHLLRASWFAYWGQGTLVTVSA VL: DFVMTQSPSSLTVTAGEKVTMSCKSSQSLLNSGNQKNYLTWYLQKPGQPPKLLIYWASTRESGVPDRFTGSGSGTDFTLTISSVQAEDLAVYYCQNDYSYPYTFGGGTKLEIKR |
| 1.05e+10 M⁻¹ | 0.0954 nM | 6.25e-05 s⁻¹ | 655000 M⁻¹ s⁻¹ | – | – | 0.1 nM | – | – | 13967 7G3_H1.109_L1.57_Fab_His (Fab, V domains shown, also called XENP13967) VH: QVQLQQSGAEVKKPGASVKVSCKASGYTFTDYYMKWVKQSHGKSLEWMGDIIPSNGATFYNQKFKGKATLTVDRSTSTAYMELSSLRSEDTAVYYCARSHLLRASWFAYWGQGTLVTVSS VL: DFVMTQSPDSLAVSLGERATINCKSSQSLLNTGNQKNYLTWYQQKPGQPPKLLIYWASTRESGVPDRFTGSGSGTDFTLTISSLQAEDVAVYYCQNDYSYPYTFGGGTKLEIKR |
| – | – | – | – | – | – | – | 8.1 nM | 5.7 nM | XENP14045 (anti-CD123 x anti-CD3) bispecific (bispecific antibody, XENP13967 has the same CD123 side with a different CD3 scFv) heavy: QVQLQQSGAEVKKPGASVKVSCKASGYTFTDYYMKWVKQSHGKSLEWMGDIIPSNGATFYNQKFKGKATLTVDRSTSTAYMELSSLRSEDTAVYYCARSHLLRASWFAYWGQGTLVTVSSASTKGPSVFPLAPSSKSTSGGTAALGCLVKDYFPEPVTVSWNSGALTSGVHTFPAVLQSSGLYSLSSVVTVPSSSLGTQTYICNVNHKPSDTKVDKKVEPKSCDKTHTCPPCPAPPVAGPSVFLFPPKPKDTLMISRTPEVTCVVVDVKHEDPEVKFNWYVDGVEVHNAKTKPREEEYNSTYRVVSVLTVLHQDWLNGKEYKCKVSNKALPAPIEKTISKAKGQPREPQVYTLPPSREEMTKNQVSLTCDVSGFYPSDIAVEWESDGQPENNYKTTPPVLDSDGSFFLYSKLTVDKSRWEQGDVFSCSVMHEALHNHYTQKSLSLSPGK scFv-Fc: not shown light: not shown |
